91 variants from IntAct's records for PubMed 29039417 can be followed below.

Sequences and labels used below:
B1: BBSome complex member BBS2 (Homo sapiens), Q9BXC9 (parent)
chain: MLLPVFTLKLRHKISPRMVAIGRYDGTHPCLAAATQTGKVFIHNPHTRNQHVSASRVFQSPLESDVSLLSINQAVSCLTAGVLNPELGYDALLVGTQTNLLAYDVYNNSDLFYREVADGANAIVLGTLGDISSPLAIIGGNCALQGFNHEGSDLFWTVTGDNVNSLALCDFDGDGKKELLVGSEDFDIRVFKEDEIVAEMTETEIVTSLCPMYGSRFGYALSNGTVGVYDKTSRYWRIKSKNHAMSIHAFDLNSDGVNELITGWSNGKVDARSDRTGEVIFKDNFSSAIAGVVEGDYRMDGHIQLICCSVDGEIRGYLPGTAEMRGNLMDTSAEQDLIRELSQKKQNLLLELRNYEENAKAELASPLNEADGHRGIIPANTRLHTTLSVSLGNETQTAHTELRISTSNDTIIRAVLIFAEGIFTGESHVVHPSIHNLSSSICIPIVPPKDVPVDLHLKAFVGYRSSTQFHVFESTRQLPRFSMYALTSLDPASEPISYVNFTIAERAQRVVVWLGQNFLLPEDTHIQNAPFQVCFTSLRNGGHLHIKIKLSGEITINTDDIDLAGDIIQSMASFFAIEDLQVEADFPVYFEELRKVLVKVDEYHSVHQKLSADMADHSNLIRSLLVGAEDARLMRDMKTMKSRYMELYDLNRDLLNGYKIRCNNHTELLGNLKAVNQAIQRAGRLRVGKPKNQVITACRDAIRSNNINTLFKIMRVGTASS
partner: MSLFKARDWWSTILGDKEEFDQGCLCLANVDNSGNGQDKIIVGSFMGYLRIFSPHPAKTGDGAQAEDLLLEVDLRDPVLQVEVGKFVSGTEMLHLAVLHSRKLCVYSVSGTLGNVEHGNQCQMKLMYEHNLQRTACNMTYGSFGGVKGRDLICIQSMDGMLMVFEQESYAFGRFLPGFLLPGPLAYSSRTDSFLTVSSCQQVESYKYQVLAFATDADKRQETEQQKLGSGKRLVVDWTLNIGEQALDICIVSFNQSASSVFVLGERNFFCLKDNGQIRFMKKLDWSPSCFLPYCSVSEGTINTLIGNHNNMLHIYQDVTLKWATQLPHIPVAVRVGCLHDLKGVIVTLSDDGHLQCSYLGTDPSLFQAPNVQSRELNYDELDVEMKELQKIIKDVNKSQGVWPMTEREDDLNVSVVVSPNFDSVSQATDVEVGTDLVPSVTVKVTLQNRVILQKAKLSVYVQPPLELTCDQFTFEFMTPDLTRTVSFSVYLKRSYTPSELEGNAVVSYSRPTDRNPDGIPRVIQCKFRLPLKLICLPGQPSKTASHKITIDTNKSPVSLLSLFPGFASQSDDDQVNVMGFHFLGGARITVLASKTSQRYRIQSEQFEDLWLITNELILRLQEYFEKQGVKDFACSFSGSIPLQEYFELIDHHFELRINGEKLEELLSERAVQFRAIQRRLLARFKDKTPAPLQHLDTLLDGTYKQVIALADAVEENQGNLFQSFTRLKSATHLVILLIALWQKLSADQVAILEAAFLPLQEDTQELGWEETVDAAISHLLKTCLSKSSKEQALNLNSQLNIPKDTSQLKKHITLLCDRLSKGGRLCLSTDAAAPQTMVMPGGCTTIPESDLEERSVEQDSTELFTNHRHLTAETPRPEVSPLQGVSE

In this assay the parent is B1. As to conditions: with pthb1_human BBS9, Q3SYG4.
Take R632E: the “effect of a mutation on the interaction” value is listed as “with no effect”.
The entry for R632K is “with no effect”; for R632A it is “with no effect”; for R325K it is “with no effect”.
For the variant V626K, the “effect of a mutation on the interaction” value was “with no effect”.
Y463K: the “effect of a mutation on the interaction” value is on record as “with no effect”.
With H373A, the “effect of a mutation on the interaction” value is reported as “with no effect”.
The entry for T536A is “with no effect”; for R622A it is “with no effect”; for V600A it is “with no effect”.
For L610A, the “effect of a mutation on the interaction” value was “with no effect”.
Regarding M329A, the “effect of a mutation on the interaction” value is listed as “with no effect”.
The entry for D566A is “with no effect”; for N708K it is “with no effect”.
The entry for N708A is “with no effect”; for F469K it is “disrupting interaction strength”.
On to D371V, for which the “effect of a mutation on the interaction” value was “disrupting interaction strength”.
The entry for D371E is “with no effect”.
As for A576E, the “effect of a mutation on the interaction” value is on record as “with no effect”.
The value for R661K was “with no effect”.
With R715E, the “effect of a mutation on the interaction” value is recorded as “with no effect”.
Consider N664A, for which the “effect of a mutation on the interaction” value is reported as “with no effect”.
The value for Q468A was “with no effect”.
The entry for Q468E is “with no effect”.
The entry for R339K is “with no effect”.
N368A: the “effect of a mutation on the interaction” value is listed as “with no effect”.
In the case of S390E, the “effect of a mutation on the interaction” value is given as “disrupting interaction strength”.
S465E: the “effect of a mutation on the interaction” value is “with no effect”.
For L341A, the “effect of a mutation on the interaction” value was “with no effect”.
Take L341K: the “effect of a mutation on the interaction” value is reported as “with no effect”.
For the variant I443K, the “effect of a mutation on the interaction” value is recorded as “disrupting interaction strength”.
Take Q608A: the “effect of a mutation on the interaction” value is on record as “with no effect”.
With S332E, the “effect of a mutation on the interaction” value is on record as “with no effect”.
In the case of I561E, the “effect of a mutation on the interaction” value was “with no effect”.
As for N651A, the “effect of a mutation on the interaction” value is “with no effect”.
Take L685E: the “effect of a mutation on the interaction” value is “with no effect”.
With R476K, the “effect of a mutation on the interaction” value was “with no effect”.
The value for G425E was “with no effect”.
The value for S497K was “with no effect”; that for N706K was “with no effect”; that for L550E was “with no effect”.
For L489A, the “effect of a mutation on the interaction” value was “with no effect”.
As to L489E, the “effect of a mutation on the interaction” value is “with no effect”.
Consider L489K, for which the “effect of a mutation on the interaction” value is “with no effect”.
Take D336A: the “effect of a mutation on the interaction” value is reported as “with no effect”.
Regarding K449A, the “effect of a mutation on the interaction” value is recorded as “with no effect”.
The entry for L519A is “with no effect”.
The value for K549A was “with no effect”.
Turning to V429K, the “effect of a mutation on the interaction” value is given as “with no effect”.
N540E: the “effect of a mutation on the interaction” value is “with no effect”.
Take P491A: the “effect of a mutation on the interaction” value is “with no effect”.
The entry for A333E is “with no effect”; for A333K it is “with no effect”; for P452K it is “with no effect”.
For the variant A419E, the “effect of a mutation on the interaction” value is given as “with no effect”.
For T709K, the “effect of a mutation on the interaction” value is “with no effect”.
L328K: the “effect of a mutation on the interaction” value is reported as “with no effect”.
The entry for P378E is “with no effect”.
The entry for A459K is “disrupting interaction strength”; for V415K it is “with no effect”.
In the case of F586A, the “effect of a mutation on the interaction” value was “with no effect”.
In the case of S407A, the “effect of a mutation on the interaction” value was “with no effect”.
The value for V675E was “with no effect”; that for R480K was “with no effect”.
As to A701K, the “effect of a mutation on the interaction” value is listed as “with no effect”.
In the case of S439N, the “effect of a mutation on the interaction” value is given as “disrupting interaction strength”.
For the variant N517K, the “effect of a mutation on the interaction” value is given as “with no effect”.
Regarding Y644A, the “effect of a mutation on the interaction” value was “with no effect”.
The entry for D562A is “disrupting interaction strength”.
On to D562V, for which the “effect of a mutation on the interaction” value is given as “disrupting interaction strength”.
Turning to S405K, the “effect of a mutation on the interaction” value is “with no effect”.
Take G717A: the “effect of a mutation on the interaction” value is “with no effect”.
The entry for E420A is “with no effect”.
Turning to K344A, the “effect of a mutation on the interaction” value is “with no effect”.
In the case of K689E, the “effect of a mutation on the interaction” value is “with no effect”.
The value for T696K was “with no effect”.
The value for L710E was “with no effect”; that for L620E was “with no effect”.
In the case of Y355A, the “effect of a mutation on the interaction” value is recorded as “with no effect”.
Take I338A: the “effect of a mutation on the interaction” value is reported as “with no effect”.
Take I338K: the “effect of a mutation on the interaction” value is reported as “with no effect”.
As for S440K, the “effect of a mutation on the interaction” value is listed as “with no effect”.
The value for V389K was “disrupting interaction strength”; that for N528K was “with no effect”; that for T395K was “with no effect”.
In the case of S342A, the “effect of a mutation on the interaction” value is listed as “with no effect”.
On to S342K, for which the “effect of a mutation on the interaction” value is “with no effect”.
D579A: the “effect of a mutation on the interaction” value is recorded as “with no effect”.
As to D616E, the “effect of a mutation on the interaction” value is listed as “with no effect”.
Regarding D616K, the “effect of a mutation on the interaction” value was “with no effect”.
The entry for I695E is “with no effect”.
